From patent US20080230399A1, “Fructosylamine Oxidase” (priority 2003, published 2008) come the findings set out here.

The assay can be described thus: Determination of enzymatic activity (POD/Phenol/4A.A. method). In kind it is biochemical. The following applies: substrate 10 mM, PPb pH 7.0 50 mM, absorbance at 505 nm; recombinant FAO produced by Escherichia coli compared with enzyme produced by wild-type Pichia sp. N1-1. The procedure:
Reactivity of the purified enzyme prepared in Example 5 to fructosyl valine, N′-fructosyl lysine, fructosyl glycine, fructosyl alanine, fructosyl leucine, fructosyl phenylalanine, glucose and sarcosine was examined. The measurement was conducted using a solution containing a substrate (10 mM), PPb (pH 7.0, 50 mM), phenol (1.5 mM), 4-aminoantipyrine (1.5 mM) and peroxidase (2 U/ml), and changes in the absorbance at 505 nm were measured according to the POD/Phenol/4A.A. method. […] N1-1 strain of wild type.

B1: recombinant FAO: Fructosylamine oxidase derived from Pichia sp. N1-1 (SEQ ID NO: 1), recombinantly produced in Escherichia coli DH5α/pTN1 and purified (protein, listed as Pichia sp.)
chain: MESIIIVGAGTFGLSTALQLARDGYKNIKCFDKFPVPSEIAAGNDSNKIFHYDYVAPLAKPNSKERLSLEALHLWKTDPVYKPYYHPVGFILAASSDAPLLHDKEYYEELQKNGLRNYRYISTPEEFREYLPILKGPLPNWRGYVLDGDNGWLHARDSLKSAYEECKRLGVEFVFGDDGEIVELLNENGKLTGIRARSGAIFSAQKYVLSSGANAVTLLNFQRQLEGKCFTLAHFKVTDEEAKAFKSLPVLFNAEKGFFFEADENNEIKICNEYPGFTHTNESGESIPLYRMEIPLESALEIRQYLKETMPQFADRPFTKTRICWCTDSPDMQLILCTHPEYTNLIVASGDSGNSFKIMPIIGKYVSKVVTKGDKGLDPEDKECWKWRPETWDKRGQVRWGGRYRVADLNEIEEWVSVENPTPHKLE
On to B1, for which the “activity and substrate specificity of the enzyme” value is on record as “higher activity”.
